Assay [1] has as its target T1, soluble human CD154 (human, UniProt P29965 113-261).
T1 construct: also called sCD154; shCD154
T1 sequence: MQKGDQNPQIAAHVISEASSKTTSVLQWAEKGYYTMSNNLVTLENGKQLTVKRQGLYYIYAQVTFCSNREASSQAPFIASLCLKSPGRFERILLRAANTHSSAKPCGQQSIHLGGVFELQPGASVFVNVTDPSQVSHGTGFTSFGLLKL
The assay can be described thus: ELISA of free and total sCD154 in platelet poor plasma of dosed human participants. On the procedure: Mean free and total soluble CD154 (sCD154) concentrations were determined by ELISA in platelet poor plasma samples obtained from the participants administered C4LB231 according to the study described in Example 2. Free sCD154 concentration remained undetectable until 14 days after dosing indicating suppression of the target of […].
A general note: ELISA stands for enzyme-linked immunosorbent assay.

Assay [2] deals with T2, rhesus monkey soluble CD154 (rhesus monkey, UniProt P63304 113-261, limits assumed).
T2 construct: Endogenous plasma protein measured in dosed animals; also called sCD154; free sCD154
T2 sequence (looked up): T1 sequence
The assay can be described thus: free and total sCD154 in platelet poor plasma of rhesus monkeys dosed IV or SC (3-month study). How it is done: Rhesus monkeys were administered the anti-CD154 antibody C4LB231 intravenously (IV) or subcutaneously (SC) once weekly for 13 weeks. The control vehicle was 0.9% sterile saline (NaCl). Animals were dosed by IV or SC injection as described above for the 8-week study on days 1, 8, 15, 22, 29, 36, 43, 50, 57, 64, 71, 78, and 85 for a total of 13 doses. On days 29, 57, and 155 (recovery study animals only) animals received an intramuscular injection of a 1 mg dose of KLH antigen to the left thigh for a KLH-antigen challenge study. Blood samples were collected from the animals and evaluated as described below.
Free and total soluble CD154 (sCD154) were assessed in platelet poor plasma samples. […] The extent of reduction was greater at the higher dose levels. A dose-dependent decrease in free sCD154 coupled with dose-dependent increase in total sCD154 indicated good target engagement in plasma.

The results in this text go back to patent US20210317220A1 (Janssen / Centocor, published 2021).

B1: anti-CD154 antibody C4LB231 (antibody, human IgG1, kappa, V domains shown)
VH: QVQLVQSGAEVKKPGSSVKVSCKASGGTFSSYGISWVRQAPGQGLEWMGWISPIFGNTNYAQKFQGRVTITADESTSTAYMELSSLRSEDTAVYYCARSRYYGDLDYWGQGTLVTVSS
VL: DIQMTQSPSSLSASVGDRVTITCRASQSISSYLNWYQQKPGKAPKLLIYYANSLQSGVPSRFSGSGSGTDFTLTISSLQPEDFATYYCQQSDSIPWTFGQGTKVEIKR
notes: Human IgG1σ mAb (Fc-silencing mutations L234A, L235A, G237A, P238S, H268A, A330S, P331S); also called C4BL231; C4BL231 (Fc silent)
Consider B1, for which the binding result in assay [1] and in assay [2] was “binds” throughout.
